Results reported in PMC10570040 (Nucleic Acids Research, 2023).

Molecular target: the molecule itself
Assay: crystal structure; microbatch under oil at 22°C; space group P4(3)2(1)2, two monomers in the asymmetric unit

Row | Protein | binding result
1 | EnfR (TON_1525) T55I mutant (natural protein, Thermococcus onnurineus NA1, UniProt B6YTS4 1-146, looked up, TON_1525 (EnfR) of Thermococcus onnurineus NA1, residues 1-146, with T55I; The T55I change first arose in an adaptive laboratory evolution (strain 156T / MC11); here made by site-directed mutagenesis; source: E. coli Rosetta (DE3), purified (75°C heat step, Ni-NTA, Superdex 75); not shown: His6, C-terminal, kept) MGSKSFLTEQQIKILRLRARGLKQSEIAELLGTSRANISILERRALEKIEKARNIITIWEQINSKISVEVRKGEDIFTVPDKLFKKADELQIKVPYSTAEIIAFLVEHAPISDRIAKRDFTLFLDARDRLRISECLLEEFDEIGKQ | binds

Molecular target: the molecule itself
Assay: AUC; sedimentation velocity, 42,000 rpm, 20°C, absorbance at 280 nm, analysed with SEDFIT

Row | Protein | stoichiometry N
2 | TON_1525 ('eighth note' fold regulator, EnfR), wild-type (natural protein, Thermococcus onnurineus NA1, UniProt B6YTS4 1-146, looked up, Synthetic gene in pET24a(+) with an in-frame non-cleavable C-terminal His6-tag; also called WT; wild-type EnfR; source: E. coli Rosetta (DE3), purified (75°C heat step, Ni-NTA, Superdex 75); not shown: His6, C-terminal, kept) MGSKSFLTEQQIKILRLRARGLKQSEIAELLGTSRANISILERRALEKIEKARNTITIWEQINSKISVEVRKGEDIFTVPDKLFKKADELQIKVPYSTAEIIAFLVEHAPISDRIAKRDFTLFLDARDRLRISECLLEEFDEIGKQ | 2
3 | EnfR R43A mutant (natural protein, Thermococcus onnurineus NA1, UniProt B6YTS4 1-146, looked up, TON_1525 (EnfR) of Thermococcus onnurineus NA1, residues 1-146, with R43A; source: E. coli, purified by the same procedure as the wild-type; not shown: His6, C-terminal, kept) MGSKSFLTEQQIKILRLRARGLKQSEIAELLGTSRANISILEARALEKIEKARNTITIWEQINSKISVEVRKGEDIFTVPDKLFKKADELQIKVPYSTAEIIAFLVEHAPISDRIAKRDFTLFLDARDRLRISECLLEEFDEIGKQ | 2
4 | EnfR R44A mutant (natural protein, Thermococcus onnurineus NA1, UniProt B6YTS4 1-146, looked up, TON_1525 (EnfR) of Thermococcus onnurineus NA1, residues 1-146, with R44A; source: E. coli, purified by the same procedure as the wild-type; not shown: His6, C-terminal, kept) MGSKSFLTEQQIKILRLRARGLKQSEIAELLGTSRANISILERAALEKIEKARNTITIWEQINSKISVEVRKGEDIFTVPDKLFKKADELQIKVPYSTAEIIAFLVEHAPISDRIAKRDFTLFLDARDRLRISECLLEEFDEIGKQ | 2
5 | EnfR R35A mutant (natural protein, Thermococcus onnurineus NA1, UniProt B6YTS4 1-146, looked up, TON_1525 (EnfR) of Thermococcus onnurineus NA1, residues 1-146, with R35A; source: E. coli, purified by the same procedure as the wild-type; not shown: His6, C-terminal, kept) MGSKSFLTEQQIKILRLRARGLKQSEIAELLGTSAANISILERRALEKIEKARNTITIWEQINSKISVEVRKGEDIFTVPDKLFKKADELQIKVPYSTAEIIAFLVEHAPISDRIAKRDFTLFLDARDRLRISECLLEEFDEIGKQ | 2
6 | EnfR mutant with N-terminal six residues deleted (ΔN^1–6) (domain or fragment, Thermococcus onnurineus NA1, UniProt B6YTS4 7-146, looked up, TON_1525 (EnfR) of Thermococcus onnurineus NA1, residues 1-146 without the N-terminal six residues (N-6 region, residues 1-6); The limits 7-146 follow from the printed deletion of residues 1-6 of the 1-146 construct; also called mutant with the N-6 region deleted; source: E. coli, purified by the same procedure as the wild-type; not shown: His6, C-terminal, kept) LTEQQIKILRLRARGLKQSEIAELLGTSRANISILERRALEKIEKARNTITIWEQINSKISVEVRKGEDIFTVPDKLFKKADELQIKVPYSTAEIIAFLVEHAPISDRIAKRDFTLFLDARDRLRISECLLEEFDEIGKQ | 2
